Biological target: human NKp46 on human NKp46-expressing CHO-K1 cells (human) (UniProt O76036)
Test: flow cytometry on human NKp46-expressing CHO-K1 cells, Alexa Fluor 647 anti-human IgG; upper row of the box

human NKp46 on human NKp46-expressing CHO-K1 cells (human), sequence (O76036 22-304): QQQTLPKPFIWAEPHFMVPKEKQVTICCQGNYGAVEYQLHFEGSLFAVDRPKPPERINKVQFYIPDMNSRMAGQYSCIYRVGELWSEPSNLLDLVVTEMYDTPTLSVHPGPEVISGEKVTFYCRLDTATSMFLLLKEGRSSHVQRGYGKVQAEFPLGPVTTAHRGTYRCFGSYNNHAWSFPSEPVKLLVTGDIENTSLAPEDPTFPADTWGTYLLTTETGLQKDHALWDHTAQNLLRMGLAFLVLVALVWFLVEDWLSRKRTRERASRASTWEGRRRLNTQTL

Human IgG (antibody) gave a Geometric Mean : Alexa Fluor 647-H of 206.

From US20260226158A1
